In patent US20230406885A1, “CYCLIC PEPTIDES FOR TRAPPING INTERLEUKIN-1 BETA” (MERCK SHARP & DOHME LLC, priority 2022, published 2023):
*1 amine or outer side, *2 acyl side, *3 side chain or, on linkers, in order; H or OH if unused. [ ]: non-standard residue; d: D form. Trp(4-Cl)(βS-Me) = C[C@@H](c1c[nH]c2cccc(Cl)c12)[C@H](N)C(=O)O; Pro(trans-4-NH2) = O=C([C@@H]1C[C@@H](N[*:3])CN1[*:1])[*:2]; Bip(4'-COOH) = N[C@@H](Cc1ccc(-c2ccc(C(=O)O)cc2)cc1)C(=O)O; 1Nal(3S-Me) = C[C@@H](c1cccc2ccccc12)[C@H](N)C(=O)O; Phe(4-COOH) = N[C@@H](Cc1ccc(C(=O)O)cc1)C(=O)O; h3Pal(5-CN) = N#Cc1cncc(CC[C@H](N)C(=O)O)c1; 1Nal = N[C@@H](Cc1cccc2ccccc12)C(=O)O; hTyr = N[C@@H](CCc1ccc(O)cc1)C(=O)O; 3Pal = N[C@@H](Cc1cccnc1)C(=O)O; 4Pal = N[C@@H](Cc1ccncc1)C(=O)O; dDab = NCC[C@@H](N)C(=O)O; Orn = NCCC[C@H](N)C(=O)O; dNMeA = CN[C@H](C)C(=O)O; Dap = NC[C@H](N)C(=O)O; Aib = CC(C)(N)C(=O)O

The binders below were run against Recombinant human IL-1β (BioLegend 579404) (human, UniProt P01584 117-269) (assay: cell-based or functional assay).

| Binder | MRC5 IC50 [pM] |
| --- | --- |
| cyclo([Bip(4'-COOH)]W[Phe(4-COOH)]G[Pro(trans-4-NH2)][Trp(4-Cl)(βS-Me)]D[dNMeA]G[Bip(4'-COOH)][1Nal][Orn][Aib]G) (SMILES C[C@@H]1C(=O)NCC(=O)N[C@@H](Cc2ccc(-c3ccc(C(=O)O)cc3)cc2)C(=O)N[C@@H](Cc2cccc3ccccc23)C(=O)N[C@@H](CCCN)C(=O)NC(C)(C)C(=O)NCC(=O)N[C@@H](Cc2ccc(-c3ccc(C(=O)O)cc3)cc2)C(=O)N[C@@H](Cc2c[nH]c3ccccc23)C(=O)N[C@@H](Cc2ccc(C(=O)O)cc2)C(=O)NCC(=O)N2C[C@H](N)C[C@H]2C(=O)N[C@@H]([C@@H](C)c2c[nH]c3cccc(Cl)c23)C(=O)N[C@@H](CC(=O)O)C(=O)N1C) [SEQ ID NO: 37] | 103 |
| cyclo([Bip(4'-COOH)]W[Phe(4-COOH)]G[Pro(trans-4-NH2)][Trp(4-Cl)(βS-Me)]D[dNMeA]G[Bip(4'-COOH)][1Nal]L[Aib][hTyr]) (SMILES CC(C)C[C@@H]1NC(=O)[C@H](Cc2cccc3ccccc23)NC(=O)[C@H](Cc2ccc(-c3ccc(C(=O)O)cc3)cc2)NC(=O)CNC(=O)[C@@H](C)N(C)C(=O)[C@H](CC(=O)O)NC(=O)[C@H]([C@@H](C)c2c[nH]c3cccc(Cl)c23)NC(=O)[C@@H]2C[C@@H](N)CN2C(=O)CNC(=O)[C@H](Cc2ccc(C(=O)O)cc2)NC(=O)[C@H](Cc2c[nH]c3ccccc23)NC(=O)[C@H](Cc2ccc(-c3ccc(C(=O)O)cc3)cc2)NC(=O)[C@H](CCc2ccc(O)cc2)NC(=O)C(C)(C)NC1=O) [SEQ ID NO: 36] | 52.2 |
| cyclo([Bip(4'-COOH)]W[Phe(4-COOH)]G[Pro(trans-4-NH2)][Trp(4-Cl)(βS-Me)]D[dNMeA]G[Bip(4'-COOH)][4Pal]S[dA][hTyr]) (SMILES C[C@@H]1C(=O)NCC(=O)N[C@@H](Cc2ccc(-c3ccc(C(=O)O)cc3)cc2)C(=O)N[C@@H](Cc2ccncc2)C(=O)N[C@@H](CO)C(=O)N[C@H](C)C(=O)N[C@@H](CCc2ccc(O)cc2)C(=O)N[C@@H](Cc2ccc(-c3ccc(C(=O)O)cc3)cc2)C(=O)N[C@@H](Cc2c[nH]c3ccccc23)C(=O)N[C@@H](Cc2ccc(C(=O)O)cc2)C(=O)NCC(=O)N2C[C@H](N)C[C@H]2C(=O)N[C@@H]([C@@H](C)c2c[nH]c3cccc(Cl)c23)C(=O)N[C@@H](CC(=O)O)C(=O)N1C) [SEQ ID NO: 39] | 232 |
| cyclo([Bip(4'-COOH)]W[Phe(4-COOH)]G[Pro(trans-4-NH2)][1Nal(3S-Me)]D[dNMeA]G[Bip(4'-COOH)]WG[dDab][hTyr]) (SMILES C[C@@H]1C(=O)NCC(=O)N[C@@H](Cc2ccc(-c3ccc(C(=O)O)cc3)cc2)C(=O)N[C@@H](Cc2c[nH]c3ccccc23)C(=O)NCC(=O)N[C@H](CCN)C(=O)N[C@@H](CCc2ccc(O)cc2)C(=O)N[C@@H](Cc2ccc(-c3ccc(C(=O)O)cc3)cc2)C(=O)N[C@@H](Cc2c[nH]c3ccccc23)C(=O)N[C@@H](Cc2ccc(C(=O)O)cc2)C(=O)NCC(=O)N2C[C@H](N)C[C@H]2C(=O)N[C@@H]([C@@H](C)c2cccc3ccccc23)C(=O)N[C@@H](CC(=O)O)C(=O)N1C) [SEQ ID NO: 32] | 33 |
| cyclo([Bip(4'-COOH)]W[Phe(4-COOH)]G[Pro(trans-4-NH2)][1Nal(3S-Me)]D[dNMeA]G[Bip(4'-COOH)]W[Dap][dA][hTyr]) (SMILES C[C@@H]1C(=O)NCC(=O)N[C@@H](Cc2ccc(-c3ccc(C(=O)O)cc3)cc2)C(=O)N[C@@H](Cc2c[nH]c3ccccc23)C(=O)N[C@@H](CN)C(=O)N[C@H](C)C(=O)N[C@@H](CCc2ccc(O)cc2)C(=O)N[C@@H](Cc2ccc(-c3ccc(C(=O)O)cc3)cc2)C(=O)N[C@@H](Cc2c[nH]c3ccccc23)C(=O)N[C@@H](Cc2ccc(C(=O)O)cc2)C(=O)NCC(=O)N2C[C@H](N)C[C@H]2C(=O)N[C@@H]([C@@H](C)c2cccc3ccccc23)C(=O)N[C@@H](CC(=O)O)C(=O)N1C) [SEQ ID NO: 31] | 20.8 |
| cyclo([Bip(4'-COOH)]W[Phe(4-COOH)]G[Pro(trans-4-NH2)][Trp(4-Cl)(βS-Me)]D[dNMeA]G[Bip(4'-COOH)][1Nal][Dap][Aib][h3Pal(5-CN)]) (SMILES C[C@@H]1C(=O)NCC(=O)N[C@@H](Cc2ccc(-c3ccc(C(=O)O)cc3)cc2)C(=O)N[C@@H](Cc2cccc3ccccc23)C(=O)N[C@@H](CN)C(=O)NC(C)(C)C(=O)N[C@@H](CCc2cncc(C#N)c2)C(=O)N[C@@H](Cc2ccc(-c3ccc(C(=O)O)cc3)cc2)C(=O)N[C@@H](Cc2c[nH]c3ccccc23)C(=O)N[C@@H](Cc2ccc(C(=O)O)cc2)C(=O)NCC(=O)N2C[C@H](N)C[C@H]2C(=O)N[C@@H]([C@@H](C)c2c[nH]c3cccc(Cl)c23)C(=O)N[C@@H](CC(=O)O)C(=O)N1C) [SEQ ID NO: 34] | 75.5 |
| cyclo([Bip(4'-COOH)]W[Phe(4-COOH)]G[Pro(trans-4-NH2)][Trp(4-Cl)(βS-Me)]A[dNMeA]G[Bip(4'-COOH)][1Nal]L[Aib]G) (SMILES CC(C)C[C@@H]1NC(=O)[C@H](Cc2cccc3ccccc23)NC(=O)[C@H](Cc2ccc(-c3ccc(C(=O)O)cc3)cc2)NC(=O)CNC(=O)[C@@H](C)N(C)C(=O)[C@H](C)NC(=O)[C@H]([C@@H](C)c2c[nH]c3cccc(Cl)c23)NC(=O)[C@@H]2C[C@@H](N)CN2C(=O)CNC(=O)[C@H](Cc2ccc(C(=O)O)cc2)NC(=O)[C@H](Cc2c[nH]c3ccccc23)NC(=O)[C@H](Cc2ccc(-c3ccc(C(=O)O)cc3)cc2)NC(=O)CNC(=O)C(C)(C)NC1=O) [SEQ ID NO: 33] | 544 |
| cyclo([Bip(4'-COOH)]W[Phe(4-COOH)]G[Pro(trans-4-NH2)][Trp(4-Cl)(βS-Me)]D[dNMeA]G[Bip(4'-COOH)][3Pal]S[dA][hTyr]) (SMILES C[C@@H]1C(=O)NCC(=O)N[C@@H](Cc2ccc(-c3ccc(C(=O)O)cc3)cc2)C(=O)N[C@@H](Cc2cccnc2)C(=O)N[C@@H](CO)C(=O)N[C@H](C)C(=O)N[C@@H](CCc2ccc(O)cc2)C(=O)N[C@@H](Cc2ccc(-c3ccc(C(=O)O)cc3)cc2)C(=O)N[C@@H](Cc2c[nH]c3ccccc23)C(=O)N[C@@H](Cc2ccc(C(=O)O)cc2)C(=O)NCC(=O)N2C[C@H](N)C[C@H]2C(=O)N[C@@H]([C@@H](C)c2c[nH]c3cccc(Cl)c23)C(=O)N[C@@H](CC(=O)O)C(=O)N1C) [SEQ ID NO: 38] | 217 |
| cyclo([Bip(4'-COOH)]W[Phe(4-COOH)]G[Pro(trans-4-NH2)][Trp(4-Cl)(βS-Me)]D[dNMeA]G[Bip(4'-COOH)][1Nal]L[Aib]G) (SMILES CC(C)C[C@@H]1NC(=O)[C@H](Cc2cccc3ccccc23)NC(=O)[C@H](Cc2ccc(-c3ccc(C(=O)O)cc3)cc2)NC(=O)CNC(=O)[C@@H](C)N(C)C(=O)[C@H](CC(=O)O)NC(=O)[C@H]([C@@H](C)c2c[nH]c3cccc(Cl)c23)NC(=O)[C@@H]2C[C@@H](N)CN2C(=O)CNC(=O)[C@H](Cc2ccc(C(=O)O)cc2)NC(=O)[C@H](Cc2c[nH]c3ccccc23)NC(=O)[C@H](Cc2ccc(-c3ccc(C(=O)O)cc3)cc2)NC(=O)CNC(=O)C(C)(C)NC1=O) [SEQ ID NO: 35] | 160 |
